# T1: FcγRIIb extracellular domain with C-terminal His tag (human, UniProt P31994 43-217)
# T1 construct: extracellular domain; also called FcgRIIb; 2b; not shown: His tag at the C terminus
# T1 sequence (looked up): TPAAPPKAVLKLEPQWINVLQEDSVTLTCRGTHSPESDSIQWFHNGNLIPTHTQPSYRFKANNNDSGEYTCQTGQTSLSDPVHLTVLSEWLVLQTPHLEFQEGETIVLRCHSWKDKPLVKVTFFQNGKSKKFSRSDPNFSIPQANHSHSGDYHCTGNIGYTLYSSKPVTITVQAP
# Tests used:
# [1] = target: T2, FcγRIa extracellular domain with C-terminal His tag (human, UniProt P12314 16-292); experiment: SPR (Biacore), captured antibody, FcγRIa analyte; relative to GpH7-B3/GpL16-k0 = 100
# T2 construct: extracellular domain; Expressed in FreeStyle293 cells; used as analyte in Biacore; also called FcgRI; 1a; not shown: His tag at the C terminus
# T2 sequence (P12314 16-292): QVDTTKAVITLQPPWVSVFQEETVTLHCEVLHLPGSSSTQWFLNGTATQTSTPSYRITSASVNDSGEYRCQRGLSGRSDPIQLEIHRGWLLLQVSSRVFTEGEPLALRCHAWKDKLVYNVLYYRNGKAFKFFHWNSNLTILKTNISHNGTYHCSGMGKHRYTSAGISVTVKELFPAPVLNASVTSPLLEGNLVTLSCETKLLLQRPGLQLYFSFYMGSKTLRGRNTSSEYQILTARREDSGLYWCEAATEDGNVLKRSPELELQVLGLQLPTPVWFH
# [2] = target: T1, FcγRIIb extracellular domain with …; experiment: SPR (Biacore), captured antibody, FcγR as analyte; relative to GpH7-A5/GpH7-B3/GpL16-k0 = 100
# Method: (§1) Analysis of interaction between objective antibody and the FcγR was carried out using Biacore T100 (GE Healthcare). HBS-EP+ (GE Healthcare) was used as the running buffer, and the measurement temperature was set to 25° C. Chips produced by immobilizing the antigen peptide by the amine coupling method to a Series S Sencor Chip CM5 (GE Healthcare), or alternatively, chips produced by allowing preliminarily biotinylated antigen peptides to interact with and immobilize onto a Series S Sensor Chip SA (certified) (GE Healthcare) were used. Antibodies of interest were captured onto an antigen peptide-immobilized chip, and allowed to interact to each FcγR diluted with running buffer. To regenerate and repeatedly use the chip, the antibodies captured on the chip were washed off by reacting 10 mM glycine-HCl, pH 1.5.
# (§2) The FcγR-binding activity of each antibody was assessed primarily using as an indicator the FcγR-binding activity and dissociation constant for FcγR.
# [3] = target: T3, FcγRIIIa extracellular domain with C-terminal His tag (human, UniProt P08637 17-208); experiment: as above
# T3 construct: extracellular domain; also called FcgRIIIa; 3a; not shown: His tag at the C terminus
# T3 sequence (P08637 17-208): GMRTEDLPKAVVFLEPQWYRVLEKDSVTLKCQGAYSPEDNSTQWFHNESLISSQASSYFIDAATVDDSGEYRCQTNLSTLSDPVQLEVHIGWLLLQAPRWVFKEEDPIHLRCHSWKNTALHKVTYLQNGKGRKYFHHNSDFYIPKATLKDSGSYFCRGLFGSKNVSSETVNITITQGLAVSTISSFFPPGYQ
# Method: as §1, §2
Binder,Ho/Con_1a [1],He/Con_2b (IIb binding) [2],He/Con_3a (IIIa binding) [3]
"GpH7-B3 variant (A330_20W)/GpL16-k0 (antibody, human IgG1, kappa, Homodimerized; both H chains altered; also called Ho Ab A330_20W) heavy: not shown light: DIVMTQSPLSLPVTPGEPASISCQASESLVHSNRNTYLHWYLQKPGQSPQLLIYKVSNRFSGVPDRFSGSGSGTDFTLKISRVEAEDVGVYYCSQNTHVPPTFGQGTKVEIERTVAAPSVFIFPPSDEQLKSGTASVVCLLNNFYPREAKVQWKVDNALQSGNSQESVTEQDSKDSTYSLSSTLTLSKADYEKHKVYACEVTHQGLSSPVTKSFNRGEC",108 % of control,,
"GpH7-B3 variant (A330_01G)/GpL16-k0 (antibody, human IgG1, kappa, Homodimerized; both H chains altered; also called Ho Ab A330_01G) heavy: not shown light: DIVMTQSPLSLPVTPGEPASISCQASESLVHSNRNTYLHWYLQKPGQSPQLLIYKVSNRFSGVPDRFSGSGSGTDFTLKISRVEAEDVGVYYCSQNTHVPPTFGQGTKVEIERTVAAPSVFIFPPSDEQLKSGTASVVCLLNNFYPREAKVQWKVDNALQSGNSQESVTEQDSKDSTYSLSSTLTLSKADYEKHKVYACEVTHQGLSSPVTKSFNRGEC",106 % of control,,
"GpH7-A5/GpH7-B3 variant S267_06M/GpL16-k0 (heterodimerized antibody, He Ab) (antibody, human IgG1, kappa, Anti-glypican-3 IgG1; the alteration is in the GpH7-B3 chain only; also called S267M) heavy 1: not shown heavy 2: not shown light: DIVMTQSPLSLPVTPGEPASISCQASESLVHSNRNTYLHWYLQKPGQSPQLLIYKVSNRFSGVPDRFSGSGSGTDFTLKISRVEAEDVGVYYCSQNTHVPPTFGQGTKVEIERTVAAPSVFIFPPSDEQLKSGTASVVCLLNNFYPREAKVQWKVDNALQSGNSQESVTEQDSKDSTYSLSSTLTLSKADYEKHKVYACEVTHQGLSSPVTKSFNRGEC",,210 % of HeCon Ab,66 % of HeCon Ab
"GpH7-A5/GpH7-B3 variant S267_03V/GpL16-k0 (heterodimerized antibody, He Ab) (antibody, human IgG1, kappa, Anti-glypican-3 IgG1; the alteration is in the GpH7-B3 chain only; also called S267V) heavy 1: not shown heavy 2: not shown light: DIVMTQSPLSLPVTPGEPASISCQASESLVHSNRNTYLHWYLQKPGQSPQLLIYKVSNRFSGVPDRFSGSGSGTDFTLKISRVEAEDVGVYYCSQNTHVPPTFGQGTKVEIERTVAAPSVFIFPPSDEQLKSGTASVVCLLNNFYPREAKVQWKVDNALQSGNSQESVTEQDSKDSTYSLSSTLTLSKADYEKHKVYACEVTHQGLSSPVTKSFNRGEC",,192 % of HeCon Ab,30.8 % of HeCon Ab
"GpH7-A5/GpH7-B3 variant S239_08L/GpL16-k0 (heterodimerized antibody, He Ab) (antibody, human IgG1, kappa, Anti-glypican-3 IgG1; the alteration is in the GpH7-B3 chain only; also called S239L) heavy 1: not shown heavy 2: not shown light: DIVMTQSPLSLPVTPGEPASISCQASESLVHSNRNTYLHWYLQKPGQSPQLLIYKVSNRFSGVPDRFSGSGSGTDFTLKISRVEAEDVGVYYCSQNTHVPPTFGQGTKVEIERTVAAPSVFIFPPSDEQLKSGTASVVCLLNNFYPREAKVQWKVDNALQSGNSQESVTEQDSKDSTYSLSSTLTLSKADYEKHKVYACEVTHQGLSSPVTKSFNRGEC",,140 % of HeCon Ab,95.3 % of HeCon Ab
"GpH7-A5/GpH7-B3 variant S267_08L/GpL16-k0 (heterodimerized antibody, He Ab) (antibody, human IgG1, kappa, Anti-glypican-3 IgG1; the alteration is in the GpH7-B3 chain only; also called S267L) heavy 1: not shown heavy 2: not shown light: DIVMTQSPLSLPVTPGEPASISCQASESLVHSNRNTYLHWYLQKPGQSPQLLIYKVSNRFSGVPDRFSGSGSGTDFTLKISRVEAEDVGVYYCSQNTHVPPTFGQGTKVEIERTVAAPSVFIFPPSDEQLKSGTASVVCLLNNFYPREAKVQWKVDNALQSGNSQESVTEQDSKDSTYSLSSTLTLSKADYEKHKVYACEVTHQGLSSPVTKSFNRGEC",,109 % of HeCon Ab,19.5 % of HeCon Ab

# Continued, values first:
Ho/Con_1a [1],He/Con_2b (IIb binding) [2],He/Con_3a (IIIa binding) [3],Binder
107 % of control,,,"GpH7-B3 variant (A330_04F)/GpL16-k0 (antibody, human IgG1, kappa, Homodimerized; both H chains altered; also called Ho Ab A330_04F) heavy: not shown light: DIVMTQSPLSLPVTPGEPASISCQASESLVHSNRNTYLHWYLQKPGQSPQLLIYKVSNRFSGVPDRFSGSGSGTDFTLKISRVEAEDVGVYYCSQNTHVPPTFGQGTKVEIERTVAAPSVFIFPPSDEQLKSGTASVVCLLNNFYPREAKVQWKVDNALQSGNSQESVTEQDSKDSTYSLSSTLTLSKADYEKHKVYACEVTHQGLSSPVTKSFNRGEC"
,192 % of HeCon Ab,25.2 % of HeCon Ab,"GpH7-A5/GpH7-B3 variant S267_07I/GpL16-k0 (heterodimerized antibody, He Ab) (antibody, human IgG1, kappa, Anti-glypican-3 IgG1; the alteration is in the GpH7-B3 chain only; also called S267I) heavy 1: not shown heavy 2: not shown light: DIVMTQSPLSLPVTPGEPASISCQASESLVHSNRNTYLHWYLQKPGQSPQLLIYKVSNRFSGVPDRFSGSGSGTDFTLKISRVEAEDVGVYYCSQNTHVPPTFGQGTKVEIERTVAAPSVFIFPPSDEQLKSGTASVVCLLNNFYPREAKVQWKVDNALQSGNSQESVTEQDSKDSTYSLSSTLTLSKADYEKHKVYACEVTHQGLSSPVTKSFNRGEC"
,105 % of HeCon Ab,53.8 % of HeCon Ab,"GpH7-A5/GpH7-B3 variant S267_01G/GpL16-k0 (heterodimerized antibody, He Ab) (antibody, human IgG1, kappa, Anti-glypican-3 IgG1; the alteration is in the GpH7-B3 chain only; also called S267G) heavy 1: not shown heavy 2: not shown light: DIVMTQSPLSLPVTPGEPASISCQASESLVHSNRNTYLHWYLQKPGQSPQLLIYKVSNRFSGVPDRFSGSGSGTDFTLKISRVEAEDVGVYYCSQNTHVPPTFGQGTKVEIERTVAAPSVFIFPPSDEQLKSGTASVVCLLNNFYPREAKVQWKVDNALQSGNSQESVTEQDSKDSTYSLSSTLTLSKADYEKHKVYACEVTHQGLSSPVTKSFNRGEC"

# Reference: US20180155451A1 (published 2018)
